Results taken from PMC2213499 (The Journal of Experimental Medicine, 2000).

Target: Complement C1q (human, UniProt P02745 23-245; P02746 28-253; P02747 29-245)
Test: ELISA

Sequence of Complement C1q (P02745 23-245, chain 1 of 3): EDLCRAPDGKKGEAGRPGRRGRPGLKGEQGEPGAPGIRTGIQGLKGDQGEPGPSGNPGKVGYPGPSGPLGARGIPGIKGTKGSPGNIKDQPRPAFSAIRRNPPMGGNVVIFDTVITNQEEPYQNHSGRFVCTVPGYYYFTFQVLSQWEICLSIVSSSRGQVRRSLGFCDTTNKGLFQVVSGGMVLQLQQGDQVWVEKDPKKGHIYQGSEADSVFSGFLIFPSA
Sequence of Complement C1q (P02746 28-253, chain 2 of 3): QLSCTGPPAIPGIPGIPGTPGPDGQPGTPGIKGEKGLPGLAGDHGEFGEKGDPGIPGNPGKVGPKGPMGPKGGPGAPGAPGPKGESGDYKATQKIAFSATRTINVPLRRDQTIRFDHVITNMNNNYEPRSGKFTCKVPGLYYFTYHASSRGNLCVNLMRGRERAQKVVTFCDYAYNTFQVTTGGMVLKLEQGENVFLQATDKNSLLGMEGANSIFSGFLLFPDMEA
Sequence of Complement C1q (P02747 29-245, chain 3 of 3): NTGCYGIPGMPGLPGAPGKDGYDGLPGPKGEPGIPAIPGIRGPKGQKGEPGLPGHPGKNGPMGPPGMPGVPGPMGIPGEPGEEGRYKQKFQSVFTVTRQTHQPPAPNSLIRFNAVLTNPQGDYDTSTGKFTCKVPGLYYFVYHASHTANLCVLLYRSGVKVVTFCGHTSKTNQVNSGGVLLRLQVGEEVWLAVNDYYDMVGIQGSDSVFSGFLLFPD

binding result: binds
B1: Recombinant soluble complement receptor 1 (sCR1) (domain or fragment)
chain: not shown
modifications: 125I in the radioligand assays with immobilised MBL; unlabelled elsewhere
